Source: patent US20150344570A1 (published 2015)

T1: FcγRIIa H (human, UniProt P12318 34-217)
T1 construct: extracellular domain; also called FcgRIIa H; 2aH; not shown: His tag attached to the C terminus
T1 sequence (looked up): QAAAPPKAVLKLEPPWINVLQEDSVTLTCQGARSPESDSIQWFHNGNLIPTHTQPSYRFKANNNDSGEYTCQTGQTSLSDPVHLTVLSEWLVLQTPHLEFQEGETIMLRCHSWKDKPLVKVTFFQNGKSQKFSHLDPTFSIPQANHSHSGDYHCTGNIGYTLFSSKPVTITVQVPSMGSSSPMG

T2: FcγRIIb (human, UniProt P31994 43-217)
T2 construct: extracellular domain; also called FcgRIIb; 2b; not shown: His tag attached to the C terminus
T2 sequence (looked up): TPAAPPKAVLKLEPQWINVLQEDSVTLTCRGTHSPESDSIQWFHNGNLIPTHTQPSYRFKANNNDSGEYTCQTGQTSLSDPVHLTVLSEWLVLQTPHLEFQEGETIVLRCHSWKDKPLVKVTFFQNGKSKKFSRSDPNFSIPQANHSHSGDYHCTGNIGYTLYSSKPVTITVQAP

T3: FcγRIIb extracellular domain with C-terminal His tag (human, UniProt P31994 43-217)
T3 construct: extracellular domain; soluble analyte in Biacore; also called FcgRIIb; not shown: His tag at the C terminus
T3 sequence (looked up): T2 sequence (looked up)

B1: GpH7-A5/GpH7-B3 variant D265_12R/GpL16-k0 (antibody, human IgG1, kappa)
heavy 1: not shown
heavy 2: not shown
light: DIVMTQSPLSLPVTPGEPASISCQASESLVHSNRNTYLHWYLQKPGQSPQLLIYKVSNRFSGVPDRFSGSGSGTDFTLKISRVEAEDVGVYYCSQNTHVPPTFGQGTKVEIERTVAAPSVFIFPPSDEQLKSGTASVVCLLNNFYPREAKVQWKVDNALQSGNSQESVTEQDSKDSTYSLSSTLTLSKADYEKHKVYACEVTHQGLSSPVTKSFNRGEC
notes: Heterodimerized anti-glypican-3 IgG1; mutation in one H chain only; also called He Ab
B2: GpH7-A5/GpH7-B3 variant E269_01G/GpL16-k0 (antibody, human IgG1, kappa)
heavy 1: not shown
heavy 2: not shown
light: B1 light
notes: as for B1
B3: GpH7-A5/GpH7-B3 variant H268_04F/GpL16-k0 (antibody, human IgG1, kappa)
heavy 1: not shown
heavy 2: not shown
light: B1 light
notes: as for B1
B4: GpH7-A5/GpH7-B3 variant D265_14T/GpL16-k0 (antibody, human IgG1, kappa)
heavy 1: not shown
heavy 2: not shown
light: B1 light
notes: as for B1
B5: GpH7-A5/GpH7-B3 variant D270_15Y/GpL16-k0 (antibody, human IgG1, kappa)
heavy 1: not shown
heavy 2: not shown
light: B1 light
notes: change in the GpH7-B3 H chain only; also called He Ab
B6: GpH7-A5/GpH7-B3 variant P271_07I/GpL16-k0 (antibody, human IgG1, kappa)
heavy 1: not shown
heavy 2: not shown
light: B1 light
notes: as for B5
B7: GpH7-A5/GpH7-B3 variant P271_03V/GpL16-k0 (antibody, human IgG1, kappa)
heavy 1: not shown
heavy 2: not shown
light: B1 light
notes: as for B5
B8: GpH7-A5/GpH7-B3 variant P271_16H/GpL16-k0 (antibody, human IgG1, kappa)
heavy 1: not shown
heavy 2: not shown
light: B1 light
notes: as for B5
B9: GpH7-A5/GpH7-B3 variant P271_15Y/GpL16-k0 (antibody, human IgG1, kappa)
heavy 1: not shown
heavy 2: not shown
light: B1 light
notes: as for B5
B10: GpH7-A5/GpH7-B3 variant D270_16H/GpL16-k0 (antibody, human IgG1, kappa)
heavy 1: not shown
heavy 2: not shown
light: B1 light
notes: as for B5
B11: GpH7-A5/GpH7-B3 variant D270_19Q/GpL16-k0 (antibody, human IgG1, kappa)
heavy 1: not shown
heavy 2: not shown
light: B1 light
notes: as for B5
B12: GpH7-A5/GpH7-B3 variant P271_06M/GpL16-k0 (antibody, human IgG1, kappa)
heavy 1: not shown
heavy 2: not shown
light: B1 light
notes: as for B5
B13: GpH7-A5/GpH7-B3 variant P271_04F/GpL16-k0 (antibody, human IgG1, kappa)
heavy 1: not shown
heavy 2: not shown
light: B1 light
notes: as for B5
B14: GpH7-A5/GpH7-B3 variant E269_20W/GpL16-k0 (antibody, human IgG1, kappa)
heavy 1: not shown
heavy 2: not shown
light: B1 light
notes: as for B5
B15: GpH7-A5/GpH7-B3 variant E269_19Q/GpL16-k0 (antibody, human IgG1, kappa)
heavy 1: not shown
heavy 2: not shown
light: B1 light
notes: as for B5
B16: GpH7-A5/GpH7-B3 variant D270_18N/GpL16-k0 (antibody, human IgG1, kappa)
heavy 1: not shown
heavy 2: not shown
light: B1 light
notes: as for B5
B17: GpH7-A5/GpH7-B3 variant P271_20W/GpL16-k0 (antibody, human IgG1, kappa)
heavy 1: not shown
heavy 2: not shown
light: B1 light
notes: as for B5

molecular target: T1, FcγRIIa H; test: SPR; He/Con for FcγRIIa H divided by He/Con for FcγRIIb

He_2aH/2b (IIaH/IIb) [ratio] | Binder
1.87 | B1
1.39 | B2
1.24 | B3
1.5 | B4

molecular target: T4, FcγRIa extracellular domain with C-terminal His tag (human, UniProt P12314 16-292); test: SPR; He/Con_1a divided by He/Con_2b (FcγRIa against FcγRIIb)
T4 construct: extracellular domain; soluble analyte in Biacore; also called FcgRI; not shown: His tag at the C terminus
T4 sequence (P12314 16-292): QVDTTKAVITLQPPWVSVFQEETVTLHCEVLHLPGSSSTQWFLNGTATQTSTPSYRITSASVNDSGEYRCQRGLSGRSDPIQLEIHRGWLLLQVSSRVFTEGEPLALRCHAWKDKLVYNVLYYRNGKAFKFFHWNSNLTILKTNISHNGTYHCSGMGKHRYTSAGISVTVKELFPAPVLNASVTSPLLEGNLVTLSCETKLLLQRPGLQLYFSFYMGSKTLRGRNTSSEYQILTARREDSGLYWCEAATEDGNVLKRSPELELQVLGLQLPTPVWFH
Method: (§1) The heterodimerized antibodies He Abs in which one of the H chains was introduced with an alteration were assayed for their binding activities to each activating FcγR and inhibitory FcγR according to the method described in Example 4. […] The activating FcγRs in FIGS. 26, 27, 28, and 29 are FcγRIa, FcγRIIa (R), FcγRIIa (H), and FcγRIIIa, respectively.
(§2) Analysis of interaction between objective antibody and the FcγR was carried out using Biacore T100 (GE Healthcare). HBS-EP+ (GE Healthcare) was used as the running buffer, and the measurement temperature was set to 25° C. Chips produced by immobilizing the antigen peptide by the amine coupling method to a Series S Sencor Chip CM5 (GE Healthcare), or alternatively, chips produced by allowing preliminarily biotinylated antigen peptides to interact with and immobilize onto a Series S Sensor Chip SA (certified) (GE Healthcare) were used. Antibodies of interest were captured onto an antigen peptide-immobilized chip, and allowed to interact to each FcγR diluted with running buffer. To regenerate and repeatedly use the chip, the antibodies captured on the chip were washed off by reacting 10 mM glycine-HCl, pH 1.5.

He_1a/2b (Ia/IIb) [ratio] | Binder
1.53 | B5
1.33 | B6
1.37 | B7
1.5 | B8
1.97 | B9
1.4 | B10
1.63 | B11
1.32 | B12
1.71 | B13
2.47 | B14
2.37 | B15
1.68 | B16
1.77 | B17

molecular target: T1, FcγRIIa H; test: SPR (Biacore), antibody captured on antigen peptide chip, FcγR as analyte; relative binding activity
Method: as §1, §2

He/Con_2aH | Binder
28 % of GpH7-A5/GpH7-B3/GpL16-k0 (=100) | B1
71.5 % of GpH7-A5/GpH7-B3/GpL16-k0 (=100) | B2
111 % of GpH7-A5/GpH7-B3/GpL16-k0 (=100) | B3
24.1 % of GpH7-A5/GpH7-B3/GpL16-k0 (=100) | B4

molecular target: T2, FcγRIIb; test: as above
Method: as §1, §2

He/Con_2b | Binder
15 % of GpH7-A5/GpH7-B3/GpL16-k0 (=100) | B1
51.5 % of GpH7-A5/GpH7-B3/GpL16-k0 (=100) | B2
89.6 % of GpH7-A5/GpH7-B3/GpL16-k0 (=100) | B3
16 % of GpH7-A5/GpH7-B3/GpL16-k0 (=100) | B4

molecular target: T3, FcγRIIb extracellular domain with …; test: SPR, binding relative to GpH7-A5/GpH7-B3/GpL16-k0 = 100

He/Con_2b | Binder
44.9 % of control | B5
76.8 % of control | B6
74.8 % of control | B7
67.9 % of control | B8
52.3 % of control | B9
47.2 % of control | B10
48 % of control | B11
77.5 % of control | B12
59.5 % of control | B13
42.5 % of control | B14
44.3 % of control | B15
40.3 % of control | B16
58.1 % of control | B17

molecular target: T4, FcγRIa extracellular domain with …; test: as above

He/Con_1a | Binder
68.5 % of control | B5
102 % of control | B6
102 % of control | B7
102 % of control | B8
103 % of control | B9
66 % of control | B10
78.2 % of control | B11
102 % of control | B12
102 % of control | B13
105 % of control | B14
105 % of control | B15
67.8 % of control | B16
103 % of control | B17
